Experimental data published in patent US20080113343A1.

Molecular target: human sPLA2-IIA (Type IIA secreted phospholipase A2) (human) (UniProt P14555)
Test: cell-based or functional assay

Chain of human sPLA2-IIA (Type IIA secreted phospholipase A2) (human) (P14555 21-144 limits assumed): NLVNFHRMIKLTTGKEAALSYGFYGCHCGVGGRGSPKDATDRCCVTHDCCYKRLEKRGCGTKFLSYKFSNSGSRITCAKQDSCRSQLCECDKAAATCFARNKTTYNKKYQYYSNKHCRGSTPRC

## c(2NapA)LS(2NapA)R (cyclic (2Nap)LS(2Nap)R) (peptide)
  smallest effective dose, proliferation of unstimulated LNCaP and PC-3 cells (MTS assay, doses 1-100 nM): 1 nM
